Substrate in data set [1]: CC[N+](CC)(CC)CC
Description: cells, lysate or membranes named.

Substrate in data set [2]: C[N+](C)(C)CCO
The experiment in a line: cells, lysate or membranes named.

The source of these data is ChEMBL document CHEMBL2074194.

Broadly, the Km is the substrate concentration at which the rate is half of its maximum.

B1: Solute carrier family 22 member 2 (Rattus norvegicus) (protein)
chain: MSTVDDILEHIGEFHLFQKQTFFLLALLSGAFTPIYVGIVFLGFTPDHHCWSPGAAKLSQRCGWSQAEELNYTVPGLGPSDEASFLSQCMRYEVDWNQSTLDCVDPLSSLAADRNQLPLGPCEHGWVYNTPGSSIVTEFNLVCAHSWMLDLFQSVVNVGFFIGAMMIGYLADRFGRKFCLLVTILINAISGALMAISPNYAWMLVFRFLQGLVSKAGWLIGYILITEFVGLGYRRMVGICYQIAFTVGLLILAGVAYVIPNWRWLQFAVTLPNFCFLLYFWCIPESPRWLISQNKIVKAMKIIKHIAKKNGKSVPVSLQNLTPDEDAGKKLNPSFLDLVRTPQIRKHTLILMYNWFTSSVLYQGLIMHMGLAGDNIYLDFFYSALVEFPAAFIIILTIDRVGRRYPWAVSNMVAGAACLASVFIPDDLQWLKITIACLGRMGITMAYEMVCLVNAELYPTYIRNLGVLVCSSMCDIGGIITPFLVYRLTDIWMEFPLVVFAVVGLVAGALVLLLPETKGKALPETIEDAENMQRPRKKKEKRIYLQVKQADRPLS
As for B1, the results for the Km in data set [1] and in data set [2] were 160 µM and 2000 µM, respectively.
